Reference: patent US20240425571A1, “GLYCOPROTEIN A REPETITIONS PREDOMINANT (GARP)-BINDING ANTIBODIES AND USES THEREOF” (OHIO STATE INNOVATION FOUNDATION, priority 2021, published 2024)

Tests used:
Ag(−) cell = assay: FACS analysis with Ag(−) cell (non-specific binding); settings: 5 ug/ml
Method: Methods—FACS analysis. Cell preparation: Cell were harvested and washed with PBS+2% FBS for one time. Cell density was adjusted to 1.5E6/mL in PBS/2% FBS. Cell were added to 96 U-bottom well plates at 100 μL/well. Antibody samples preparation: Antibody in supernatant was adjusted to 10 μg/mL using PBS+2% FBS, with serial 5 times dilution performed to obtain 3 concentrations of antibody solution. The blank was PBS+2% FBS. Antibody solutions were placed into 96 U-bottom well plates at 100 μL/well in the same arranging pattern as the cell preparation. Incubation: The antibody samples (100 μl) were mixed with the cells (100 μl), and incubated at RT for 1 h, then centrifuged the plate for 3 min at 1000 rpm (swing bucket). The supernatant was pipetted and the cells were washed with PBS+2% FBS for one time. Incubation with the secondary antibody: Cy3-Conjugated AffiniPure Goat Anti-Human IgG was diluted 250× by PBS+2% FBS, and added to the 96 U-bottom well plate with 100 μl/well, then incubated at RT for 30 min. After that, the plate was centrifuged at 1000 rpm for 3 min and the supernatant was pipetted out. The cell was washed with PBS+2% FBS twice. Cells were re-suspended in 200 μl PBS+2% FBS and analyzed on FACS. The MFI of total live cells were used as binding signal.
Methods—heat treatment. Culture supernatant was serial diluted to the indicated concentration of IgG with cell media and heated at 70° C. for 5 mins on a PCR machine, then quickly cooled down to room temperature.

[1] = Thermostability by DSF/SLS (UNcle); format: physicochemical
Method: Developability Analysis for PIIO-1 humanization leads. Antibodies were analyzed for thermostability by DSF/SLS. Samples were submitted to the UNcle system (Unchained Labs) for analysis. A temperature ramp of 1° C./min was performed with monitoring from 20° C. to 95° C. for DSF and SLS. UNcle measures SLS at 266 nm and 473 nm. Tm and Tagg were calculated and analyzed by using the UNcle Analysis Software. DSF: Differential scanning fluorimetry; SLS: Static light scattering; Tm: Melting temperature; Tagg 266: Thermal aggregation when SLS at 266 nm; Tagg 473: Thermal aggregation when SLS at 473 nm. A summary is shown below in Table F:
IgG is a multi-domain structure and each domain has its own melting Temperature (Tm). […] Fabs have Tm in a wide range, generally about 50-85° C., due to large sequence variation. Therefore, the Tm values measured by various analytical techniques are usually “apparent” transition temperatures rather than the real Tm for each domain. In the case of whole IgG, there are often 2-3 Tm values in DSF measurement, presenting some challenge in determining which Tm represents which domain.
Tagg is the temperature at which SLS starts to detect aggregation particles. Tagg266 measures SLS at 266 nm, which is more sensitive and suitable to detect smaller aggregation particles. Tagg473 measures SLS at 473 nm and is better to detect larger particles.

Baculovirus = Baculovirus (BV) ELISA for non-specific binding
Method: Baculovirus (BV) ELISA was employed as a preliminary assay to evaluate antibody's potential nonspecific binding risk.
In Baculovirus (BV) ELISA, the inventor used Rituxan Mab as reference. […] If a clone only has binding on BV, but not on 293 cells, it will be considered as having a low risk of non-specific binding.
Methods—Baculovirus ELISA. Plates are coated with 50 μl of 1:500 diluted Baculovirus sample in PBS in each well. Plates are kept at 4° C. for overnight. The plates are washed with 300 μL of wash buffer ×3 and 200 μl blocking buffer (1% BSA) is added at RT for 60 min. Plates are washed with 300 μl of wash buffer ×3 and 100 μl of diluted Abs are added at different concentrations/well, followed by RT incubation for 1 hr. Plates are washed with 300 μl of wash buffer ×6 and 100 μl of 1:5000 HRP conjugated second Ab in PBS is added followed by RT incubation for 1 hr. The plates are washed with 300 μl of wash buffer ×6. Developing buffer is added and the plate is read.

antigen = molecular target: T1, antigen (Homo sapiens, UniProt Q14392); assay: Label-free kinetic binding assay on Gator
T1 sequence (Q14392 20-662): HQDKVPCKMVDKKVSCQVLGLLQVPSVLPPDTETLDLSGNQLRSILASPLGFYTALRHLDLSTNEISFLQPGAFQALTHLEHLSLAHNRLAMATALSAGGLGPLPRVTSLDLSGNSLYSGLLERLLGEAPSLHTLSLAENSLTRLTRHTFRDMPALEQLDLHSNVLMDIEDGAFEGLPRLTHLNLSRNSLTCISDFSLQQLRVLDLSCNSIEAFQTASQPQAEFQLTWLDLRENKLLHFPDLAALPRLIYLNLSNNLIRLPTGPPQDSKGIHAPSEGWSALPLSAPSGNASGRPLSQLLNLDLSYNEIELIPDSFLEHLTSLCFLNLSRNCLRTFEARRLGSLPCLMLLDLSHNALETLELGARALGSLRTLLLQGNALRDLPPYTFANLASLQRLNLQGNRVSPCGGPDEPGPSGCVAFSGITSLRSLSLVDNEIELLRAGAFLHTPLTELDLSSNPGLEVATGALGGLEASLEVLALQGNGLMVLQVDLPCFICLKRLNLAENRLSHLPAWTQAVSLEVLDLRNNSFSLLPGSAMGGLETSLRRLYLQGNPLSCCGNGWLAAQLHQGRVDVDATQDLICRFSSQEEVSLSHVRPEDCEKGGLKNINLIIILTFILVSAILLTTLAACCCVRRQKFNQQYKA
Method: Affinity measurement. Label-free kinetic binding assay was performed on Gator (similar to Octet).
Methods. Affinity was measured on Gator (ProbeLife, Palo Alto). In brief, the purified IgG sample was diluted in K buffer at 2 μg/ml, and the antigen was diluted at 5 μg/ml. The antibody-loaded anti-human Fc probes were dipped in antigen wells for 5 mins and then moved to K buffer wells for 5 mins. In the whole process, the sample plate was shaken at 1,000 rpm. The data analysis was carried out using Gator software (ProbeLife).

[2] = Non-reducing CE-SDS (heterogeneity); format: physicochemical
Method: (§1) Analysis of the heterogeneity by Capillary Electrophoresis (CE). The sample was prepared in reducing and non-reducing labeling buffer before being submitted to the CE analysis. A summary of the Reducing-CE-SDS and Non-Reducing-CE-SDS results are shown in FIG. 13A/Table H and FIG. 13B/Table I, respectively: […]

[3] = Aggregation potential by DLS analysis; format: physicochemical
Method: Aggregation potential by DLS analysis. DLS was performed on UNcle system (Unchained Labs). DLS was measured at 25° C. Data was calculated and analyzed using UNcle Analysis Software. DLS: Dynamic light scattering PDI: Polydispersity index, PDI=(standard deviation/mean hydrodynamic radius).
Dynamic Light Scattering (DLS) is used to detect aggregation in the antibody sample. “Mode diameter” is protein particle diameter and “mass percentage” is the amount of each size fraction in percentage. “PDI” is Polydispersity Index; the higher this index, the more polydispersity in the sample is. […] Peak 1 is the major peak and represents the IgG monomer. The inventor takes “Peak 1 mass percentage” and “PDI” value into consideration in selecting a lead.

[4] = Reducing CE-SDS (heterogeneity); format: physicochemical; settings: Reducing-CE-SDS
Method: as §1

[5] = ramp 1° C./min, 20° C. to 95° C.
[6] = IgG 2 μg/ml on anti-human Fc probes, antigen 5 μg/ml

B1: H1L1: humanized PIIO-1 antibody, VH SEQ ID NO: 20 and VL SEQ ID NO: 23 (antibody, V domains shown)
VH: QVQLQESGPGLVKPSQTLSLTCTVSGYSITSDYAWNWIRQFPGNKLEWMGYISYSGSTSYTPSLKSRVTISRDTSKNHFSLKLSSVTAADTAVYYCAKSGGDYYGSSSYWYFDVWGQGTMVTVSS
VL: DIVLTQSPSSLAVSLGERATMNCKSSQSLLNSRSQKNYLAWYQQKPGQPPKLLIYGASTRGSGVPDRFSGSGSGTDFTLTISSLQAEDVAVYYCQNDHSYPFTFGQGTKLEIKR
In the case of B1, the “FACS with Ag(−) cell (MFI)” value (Ag(−) cell; Heating) is reported as 3.36, the “FACS with Ag(−) cell (MFI)” value (Ag(−) cell; Non-Heating) is reported as 3.31 and the “SLS Tagg 266” value ([1]; SLS at 266 nm) is reported as 74.2 °C. The “SLS Tagg 473” value ([1]; SLS at 473 nm) was 74.9 °C, the “DSF TM2” value [1, 5] was 83.7 °C and the “DSF Tm1” value [1, 5] was 70.2 °C. For the same molecule, the “BV ELISA with purified IgG, raw BV binding data” value (shortened to “BV ELISA with purified IgG”) (Baculovirus; Ab. Conc. 0.15625 ug/ml) was 15.0, the “BV ELISA with purified IgG” value (Baculovirus; Ab. Conc. 0.3125 ug/ml) was 16.2 and the “BV ELISA with purified IgG” value (Baculovirus; Ab. Conc. 0.625 ug/ml) was 14.7. For the same molecule, the “BV ELISA with purified IgG” value (Baculovirus; Ab. Conc. 1.25 ug/ml) was 16.0, the “BV ELISA with purified IgG” value (Baculovirus; Ab. Conc. 2.5 ug/ml) was 18.3 and the “BV ELISA with purified IgG” value (Baculovirus; Ab. Conc. 5 ug/ml) was 24.9. For the same molecule, the “BV ELISA with purified IgG” value (Baculovirus; Ab. Conc. 10 ug/ml) was 52.7, the “BV ELISA with purified IgG” value (Baculovirus; Ab. Conc. 20 ug/ml) was 157.2 and the “KD value compared with the chimeric” value (antigen) was “same KD value to the chimeric”. It also gave an Rmax (antigen; [6]) of 0.791, a koff (antigen; [6]) of 0.00081 and a kon (antigen; [6]) of 1.01E+05. The “Main Peak (%)” value [2] was 97.6%, the “OTHER (%)” value [2] was 2.4% and the “PDI compared with WT” value [3] was “slight worse than WT”. The “Peak 1 Mass” value ([3]; DLS at 25° C.) was 99.95%, the “Peak 1 Mode Diameter” value ([3]; DLS at 25° C.) was 9.68 nm and the “Peak 1 PDI” value ([3]; DLS at 25° C.) was 1.228. For the same molecule, the “Peak 2 Mass” value ([3]; DLS at 25° C.) was 0%, the “OTHER (%)” value [4] was 0.9% and the “PK#1 (%)” value [4] was 5.6%. The “PK#2 (%)” value [4] was 23.2% and the “PK#3 (%)” value [4] was 70.4%.
